Biological target: IGF-1R 단백질 (Sino biological Inc. 10164H08H) (UniProt P08069 31-932)
Assay: ELISA, coated IGF-1R (50 ng/well), anti-human Fc-HRP

Sequence of IGF-1R 단백질 (Sino biological Inc. 10164H08H) (P08069 31-932 limits assumed): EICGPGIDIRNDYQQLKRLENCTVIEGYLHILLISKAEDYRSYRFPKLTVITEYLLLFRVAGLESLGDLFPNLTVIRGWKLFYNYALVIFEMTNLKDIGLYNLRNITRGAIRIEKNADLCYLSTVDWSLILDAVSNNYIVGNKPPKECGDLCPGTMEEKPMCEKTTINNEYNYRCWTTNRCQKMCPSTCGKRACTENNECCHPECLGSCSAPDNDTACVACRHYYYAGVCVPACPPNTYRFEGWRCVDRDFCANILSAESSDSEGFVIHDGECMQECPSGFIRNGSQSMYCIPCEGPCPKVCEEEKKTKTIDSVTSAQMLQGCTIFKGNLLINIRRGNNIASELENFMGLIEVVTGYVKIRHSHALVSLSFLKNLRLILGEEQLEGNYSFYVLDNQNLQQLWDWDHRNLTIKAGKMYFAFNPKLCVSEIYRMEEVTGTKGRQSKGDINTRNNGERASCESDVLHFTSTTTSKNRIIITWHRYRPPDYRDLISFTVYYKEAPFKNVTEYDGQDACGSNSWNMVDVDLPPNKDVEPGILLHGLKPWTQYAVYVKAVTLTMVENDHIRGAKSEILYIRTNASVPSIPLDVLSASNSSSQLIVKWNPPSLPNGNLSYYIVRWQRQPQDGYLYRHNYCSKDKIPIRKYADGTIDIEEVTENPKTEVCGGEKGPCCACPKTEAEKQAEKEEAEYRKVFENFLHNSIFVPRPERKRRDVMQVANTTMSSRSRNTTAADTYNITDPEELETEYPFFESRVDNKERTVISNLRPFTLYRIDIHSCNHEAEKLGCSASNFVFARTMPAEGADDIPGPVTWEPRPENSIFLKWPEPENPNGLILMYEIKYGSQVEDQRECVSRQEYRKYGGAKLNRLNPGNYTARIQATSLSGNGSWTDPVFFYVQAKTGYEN

EC50: 0.148 nM
B1: MKJP2 인간 단일클론항체 (antibody, human IgG1, lambda, V domains shown)
VH: EVQLLESGGGLAQPGGSLRLSCAASGFTFSGYAMSWVRQAPGKGLEWVSAISSDGGSTYYADSVKGRFTISRDNSKNTLYLQMNSLRAEDTAVYYCARDPWFSRWTAFDYWGQGTLVTVSS
VL: QSVLTQPPSASGTPGQRVTISCSGSSSNIGNNAVNWYQQLPGTAPKLLIYSNSKRPSGVPDRFSGSKSGTSASLAISGLRSEDEADYYCGTWDYSLSGYVFGGGTKLTVLG
notes: Human anti-IGF-1R antibody without IL2, used as the control in the ELISA; also called 1229 클론
